Patent US10294487B2, “Methods and compositions involving ALS variants with native substrate preference” (E I DU PONT DE NEMOURS AND COMPANY, priority 2012, dated 2019)
Where a chain is given by its changes, count along the chain named. Names may count otherwise.

B1: UBQ10: GM-ALS_P178S_D357E: UBQ10 promoter driving ALS variant SEQ ID NO 17 in transgenic soybean (protein)
chain: MAATASRTTRFSSSSSHPTFPKRITRSTLPLSHQTLTKPNHALKIKCSISKPPTAAPFTKEAPTTEPFVSRFASGEPRKGADILVEALERQGVTTVFAYPGGASMEIHQALTRSAAIRNVLPRHEQGGVFAAEGYARSSGLPGVCIATSGPGATNLVSGLADALMDSVPVVAITGQVSRRMIGTDAFQETPIVEVSRSITKHNYLILDVDDIPRVVAEAFFVATSGRPGPVLIDIPKDVQQQLAVPNWDEPVNLPGYLARLPRPPAEAQLEHIVRLIMEAQKPVLYVGGGSLNSSAELRRFVELTGIPVASTLMGLGTFPIGDEYSLQMLGMHGTVYANYAVDNSDLLLAFGVRFDERVTGKLEAFASRAKIVHIDIDSAEIGKNKQAHVSVCADLKLALKGINMILEEKGVEGKFDLGGWREEINVQKHKFPLGYKTFQDAISPQHAIEVLDELTNGDAIVSTGVGQHQMWAAQFYKYKRPRQWLTSGGLGAMGFGLPAAIGAAVANPGAVVVDIDGDGSFIMNVQELATIRVENLPVKILLLNNQHLGMVVQWEDRFYKSNRAHTYLGDPSSESEIFPNMLKFADACGIPAARVTKKEELRAAIQRMLDTPGPYLLDVIVPHQEHVLPMIPSNGSFKDVITEGDGRTRY
B2: UBQ10: GM-ALS_A103T_P178S: UBQ10 promoter driving ALS variant SEQ ID NO 7 in transgenic soybean (protein)
chain: B1 chain with A103T, E357D
B3: SAMS: GM-ALS_P178A_W555L: SAMS promoter driving HRA ALS variant SEQ ID NO 10 in transgenic soybean (protein)
chain: B1 chain with S178A, E357D, W555L
B4: UBQ10: GM-ALS_W555L: UBQ10 promoter driving ALS variant SEQ ID NO 26 in transgenic soybean (protein)
chain: B1 chain with S178P, E357D, W555L
B5: SAMS: GM-ALS_A103T_P178S_D357E: SAMS promoter driving ALS variant SEQ ID NO 8 in transgenic soybean (protein)
chain: B1 chain with A103T
B6: SAMS: GM-ALS_A103T_P178S: SAMS promoter driving ALS variant SEQ ID NO 7 in transgenic soybean (protein)
chain: B1 chain with A103T, E357D
B7: SAMS: GM-ALS_P178S_D357E: SAMS promoter driving ALS variant SEQ ID NO 17 in transgenic soybean (protein)
chain: B1 chain
B8: SAMS: GM-ALS W555L: SAMS promoter driving ALS variant SEQ ID NO 26 in transgenic soybean (protein)
chain: B1 chain with S178P, E357D, W555L
B9: UBQ10: GM-ALS_A103T_P178S_D357E: UBQ10 promoter driving ALS variant SEQ ID NO 8 in transgenic soybean (protein)
chain: B1 chain with A103T
B10: SAMS: GM-ALS_P178A: SAMS promoter driving ALS variant SEQ ID NO 9 in transgenic soybean (protein)
chain: B1 chain with S178A, E357D
B11: M354V: Site-directed mutation in S. cerevisiae ALS; position M351, 332 (protein, UniProt P07342 91-687, looked up, variant M354V)
Acetolactate synthase …: GLTGGQIFNEMMSRQNVDTVFGYPGGAILPVYDAIHNSDKFNFVLPKHEQGAGHMAEGYARASGKPGVVLVTSGPGATNVVTPMADAFADGIPMVVFTGQVPTSAIGTDAFQEADVVGISRSCTKWNVMVKSVEELPLRINEAFEIATSGRPGPVLVDLPKDVTAAILRNPIPTKTTLPSNALNQLTSRAQDEFVMQSINKAADLINLAKKPVLYVGAGILNHADGPRLLKELSDRAQIPVTTTLQGLGSFDQEDPKSLDMLGVHGCATANLAVQNADLIIAVGARFDDRVTGNISKFAPEARRAAAEGRGGIIHFEVSPKNINKVVQTQIAVEGDATTNLGKMMSKIFPVKERSEWFAQINKWKKEYPYAYMEETPGSKIKPQTVIKKLSKVANDTGRHVIVTTGVGQHQMWAAQHWTWRNPHTFITSGGLGTMGYGLPAAIGAQVAKPESLVIDIDGDASFNMTLTELSSAVQAGTPVKILILNNEEQGMVTQWQSLFYEHRYSHTHQLNPDFIKLAEAMGLKGLRVKKQEELDAKLKEFVSTKGPVLLEVEVDKKVPVLPMVAGGSGLDEFINFDPEVERQQTELRHKRTGGKH
B12: D379N: Site-directed mutation in S. cerevisiae ALS; position D376, 357 (protein, UniProt P07342 91-687, looked up, variant D379N)
Acetolactate synthase …: B11 Acetolactate synthase … with V264M, D289N
B13: W586L: Site-directed mutation in S. cerevisiae ALS; position W574, 555 (protein, UniProt P07342 91-687, looked up, variant W586L)
Acetolactate synthase …: B11 Acetolactate synthase … with V264M, W496L
B14: G116S: Site-directed mutation in Saccharomyces cerevisiae ALS; position G121 A. thal., 102 G. max (protein, UniProt P07342 91-687, looked up, variant G116S)
Acetolactate synthase …: B11 Acetolactate synthase … with G26S, V264M

system: soybean plants; test: Field spray test of homozygous T3 soybean plants with Affinity Broadspec; type: in vivo; settings: Affinity Broadspec (thifensulfuron + tribenuron) 1 oz product per acre
Protocol: Homozygous T3 soybean plants with and without ALS variant transgenes were grown in a field study and sprayed at the V2 to V4 growth stage with a commercial formulation of Affinity Broadspec at 1 oz product per acre (2× typical field rate). Affinity Broadspec contains 25% thifensulfuron and 25% tribenuron by volume. The herbicide was applied foliarly with nonionic surfactant. The herbicide response for individual events was determined by comparing to untreated plants of similar genetic background. Visual injury is on a scale of 0 to 100% injury (0=no effect to 100=dead plant). The substituted ALS variants gave substantially more protection to ALS-inhibitors than overexpression of the native ALS gene.

Molecule	Lowest % injury
B1	13%
B2	57%
B3	5%

system: soybean plants; test: Chlorsulfuron spray test of transgenic T1 soybean plants; type: in vivo; settings: chlorsulfuron 3 g ai/ha foliar; homozygous T1 plants; 8 days after treatment; 0=no effect, 100=dead plant
Protocol: T1 plants, each having an ALS variant transgene, were grown to the V1 to V2 growth stage and then sprayed with commercial chlorsulfuron formulation at a rate of 3 g ai/ha. All chlorsulfuron treatments were applied foliarly with 0.25% nonionic surfactant in a spray volume of 374 L/ha. Individual plants were compared to untreated plants of similar genetic background, evaluated for herbicide response at eight days after treatment and assigned a visual response score from 0 to 100% injury (0=no effect to 100=dead plant at day 8).
Results in Table 8 list the lowest injury among plants of a single event for constructs containing the listed expression cassette. The amino acid substituted ALS variants provided more protection than the overexpression of the native ALS gene. Seed was produced from a number of T1 plants and advanced to more extensive herbicide testing in the T2 generation.

Molecule	Lowest % injury
B1	5%
B4	75%
B5	80%
B2	40%
B3	10%
B6	80%
B7	45%
B8	80%
B9	75%
B10	0%

system: ALS; test: not given; settings: pyruvate reaction; cited from earlier work

Molecule	Kinetic parameters: Km	Kinetic parameters: kcat
B11	Km, 60 % wt	kcat, 50 % wt
B12	Km, 133 % wt	kcat, 140 % wt
B13	Km, 80 % wt	kcat, 450 % wt
B14	Km, 20 % wt	kcat, 75 % wt

system: soybean plants; test: Spray test of homozygous transgenic soybean plants with five ALS-inhibitor herbicides; type: in vivo; settings: chlorimuron 32 g ai/ha foliar; homozygous T1 or T2 plants
Protocol: T1 or T2 soybean plants were evaluated with qPCR to confirm they were homozygous for the transgene. Plants were sprayed at the V1 to V2 growth stage with the commercial formulations of chlorimuron (32 g ai/ha), tribenuron-methyl (16 g ai/ha), thifensulfuron-methyl (16 g ai/ha), rimsulfuron (8 g ai/ha), and imazapyr (4 g ai/ha). Each herbicide was applied foliarly with nonionic surfactant in a spray volume of 374 L/ha. The herbicide response for individual plants was determined by comparing to untreated plants of similar genetic background. Visual injury was scored on a scale of 0 to 100% injury (0=no effect to 100=dead plant). The lowest response for four treated plants of a single event from each construct with the listed expression cassette is reported.

Molecule	Lowest % injury Chlorimuron
B1	20%
B4	5%
B2	35%
B9	5%
B10	0%

same assay, conditions: imazapyr 4 g ai/ha foliar; homozygous T1 or T2 plants

Molecule	Lowest % injury Imazapyr
B1	40%
B4	10%
B2	45%
B9	50%

same assay, conditions: rimsulfuron 8 g ai/ha foliar; homozygous T1 or T2 plants

Molecule	Lowest % injury Rimsulfuron
B1	70%
B4	80%
B2	80%
B9	80%
B10	80%

same assay, conditions: thifensulfuron-methyl 16 g ai/ha foliar; homozygous T1 or T2 plants

Molecule	Lowest % injury Thifensulfuron-methyl
B1	20%
B4	5%
B2	35%
B9	0%
B10	25%

same assay, conditions: tribenuron-methyl 16 g ai/ha foliar; homozygous T1 or T2 plants

Molecule	Lowest % injury Tribenuron-methyl
B1	20%
B2	65%
B3	75%
B9	55%
B10	80%

system: ALS; test: not given; settings: IP (abbreviation not defined); cited from earlier work

Molecule	Resistance pattern, I50 fold increase: IP
B11	10 fold

same assay, conditions: imazethapyr; cited from earlier work

Molecule	Resistance pattern, I50 fold increase: IEt
B11	90 fold

same assay, conditions: imidazolinone(s); cited from earlier work

Molecule	Resistance pattern, I50 fold increase: IM
B12	hypersensitivity
B13	IMs, 8-70 fold
B14	IMs 15-300 fold

same assay, conditions: sulfonylurea(s); cited from earlier work

Molecule	Resistance pattern, I50 fold increase: SU
B11	SUs, 5-85 fold
B12	SUs, 200-900 fold
B13	SUs, 1000-10000 fold
B14	SUs, 1000-10000 fold
